To fix the notation:
B1: GST-U2AF35 (natural protein)
chain: MAEYLASIFGTEKDKVNCSFYFKIGACRHGDRCSRLHNKPTFSQTIALLNIYRNPQNSSQSADGLRCAVSDVEMQEHYDEFFEEVFTEMEEKYGEVEEMNVCDNLGDHLVGNVYVKFRREEDAEKAVIDLNNRWFNGQPIHAELSPVTDFREACCRQYEMGECTRGGFCNFMHLKPISRELRRELYGRRRKKHRSRSRSRERRSRSRDRGRGGGGGGGGGGGGRERDRRRSRDRERSGRF

Holding throughout (experiment): pull-down
The target of assay [1] is His-YB-1 (recombinant His-tagged full-length YB-1) (human, UniProt P67809 1-324).
The target in a further assay is GST-U2AF65 (UniProt P26368 1-475).
Sequence of GST-U2AF65 (P26368 whole entry, one chain of several): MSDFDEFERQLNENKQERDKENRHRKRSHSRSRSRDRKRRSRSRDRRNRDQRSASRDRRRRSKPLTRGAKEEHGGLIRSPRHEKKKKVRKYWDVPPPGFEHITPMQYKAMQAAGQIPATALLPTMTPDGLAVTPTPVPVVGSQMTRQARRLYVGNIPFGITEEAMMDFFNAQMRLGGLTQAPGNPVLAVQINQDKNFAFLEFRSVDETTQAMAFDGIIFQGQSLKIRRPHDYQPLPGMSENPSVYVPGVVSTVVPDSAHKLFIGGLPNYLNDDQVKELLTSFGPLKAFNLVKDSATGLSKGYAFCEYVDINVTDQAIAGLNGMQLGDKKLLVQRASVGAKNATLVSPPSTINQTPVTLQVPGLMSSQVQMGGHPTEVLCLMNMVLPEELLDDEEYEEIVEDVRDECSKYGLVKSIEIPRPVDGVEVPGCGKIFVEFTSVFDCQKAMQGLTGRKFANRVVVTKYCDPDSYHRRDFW
In the assay “GST-U2AF35” the target is B1.

For B1, the binding result in assay [1] was “binds”.

B2: His-C (C-terminal B/A repeat domain of YB-1, amino acids 128-324) (domain or fragment)
chain: PGGVPVQGSKYAADRNHYRRYPRRRGPPRNYQQNYQNSESGEKNEGSESAPEGQAQQRRPYRRRRFPPYYMRRPYGRRPQYSNPPVQGEVMEGADNQGAGEQGRPVRQNMYRGYRPRFRRGPPRQRQPREDGNEEDKENQGDETQGQQPPQRRYRRNFNYRRRRPENPKPQDGKETKAADPPAENSSAPEAEQGGAE
Consider B2, for which the binding result with GST-U2AF65 and with GST-U2AF35 was “binds” in each case.

For the origin of these results see PMC3458536 (Nucleic Acids Research, 2012).
